T1: alkyl-β2gpi (reduced and alkylated β2-glycoprotein I), P02749
T1 chain: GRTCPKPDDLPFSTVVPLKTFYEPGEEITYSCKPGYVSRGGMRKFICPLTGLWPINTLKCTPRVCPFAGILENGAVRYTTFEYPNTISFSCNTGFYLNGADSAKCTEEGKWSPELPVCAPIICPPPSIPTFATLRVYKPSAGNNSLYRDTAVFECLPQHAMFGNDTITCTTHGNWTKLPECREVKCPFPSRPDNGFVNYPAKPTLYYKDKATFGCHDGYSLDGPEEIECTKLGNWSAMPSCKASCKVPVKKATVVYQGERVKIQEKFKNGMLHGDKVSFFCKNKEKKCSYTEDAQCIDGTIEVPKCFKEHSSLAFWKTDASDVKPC

T2: recombinant human β2-glycoprotein I (insect cells), P02749
T2 chain: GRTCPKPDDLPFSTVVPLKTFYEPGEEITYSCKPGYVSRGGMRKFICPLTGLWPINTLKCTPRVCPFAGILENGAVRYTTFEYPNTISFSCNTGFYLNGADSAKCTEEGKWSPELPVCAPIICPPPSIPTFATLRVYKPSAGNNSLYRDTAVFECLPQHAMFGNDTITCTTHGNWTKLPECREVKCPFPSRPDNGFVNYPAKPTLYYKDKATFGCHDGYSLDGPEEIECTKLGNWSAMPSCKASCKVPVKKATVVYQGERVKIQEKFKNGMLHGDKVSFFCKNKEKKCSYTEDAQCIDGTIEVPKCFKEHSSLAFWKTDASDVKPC

T3: β2GPI exposed to cardiolipin (CL), P02749
T3 chain: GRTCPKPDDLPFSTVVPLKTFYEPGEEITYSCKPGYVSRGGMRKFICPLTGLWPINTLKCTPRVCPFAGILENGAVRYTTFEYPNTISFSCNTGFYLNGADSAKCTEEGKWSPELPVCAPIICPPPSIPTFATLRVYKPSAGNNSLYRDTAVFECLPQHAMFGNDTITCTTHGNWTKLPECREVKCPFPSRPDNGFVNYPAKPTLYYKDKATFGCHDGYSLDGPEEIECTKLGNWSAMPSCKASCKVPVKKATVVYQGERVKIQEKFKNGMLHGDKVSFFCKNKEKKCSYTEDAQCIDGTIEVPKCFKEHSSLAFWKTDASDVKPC

T4: β2GPI purified from fresh human plasma, P02749
T4 chain: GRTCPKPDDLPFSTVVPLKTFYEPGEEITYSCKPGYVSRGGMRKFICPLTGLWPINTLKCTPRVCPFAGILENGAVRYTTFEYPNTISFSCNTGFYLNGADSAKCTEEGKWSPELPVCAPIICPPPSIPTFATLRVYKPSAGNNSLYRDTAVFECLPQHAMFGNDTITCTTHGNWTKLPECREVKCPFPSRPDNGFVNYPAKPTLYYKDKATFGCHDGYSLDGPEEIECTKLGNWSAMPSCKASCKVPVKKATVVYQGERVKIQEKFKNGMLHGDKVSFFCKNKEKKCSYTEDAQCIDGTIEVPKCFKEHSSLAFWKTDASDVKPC


How the values were obtained:
[1] = molecular target: human modified gelatin (Gelofusine)
[2] = molecular target: T1, alkyl-β2gpi (reduced and alkylated …)
[3] = molecular target: amyloid γ-globulins (denatured human γ-globulins)
[4] = molecular target: endostatin (EntreMed, Inc.), P39060
[5] = molecular target: heat/acid-denatured human glucagon, P01275
[6] = molecular target: human coagulation factor VIII (FVIII) (Aafact), P00451
[7] = molecular target: human glucagon (Glucagen), freshly dissolved, P01275
[8] = molecular target: native murine serum albumin (nMSA), P07724
[9] = molecular target: T2, recombinant human β2-glycoprotein I …
[10] = molecular target: T3, β2GPI exposed to cardiolipin (CL), …
[11] = molecular target: T4, β2GPI purified from fresh human plasma, …

Sequence of human glucagon (Glucagen), freshly dissolved, P01275 (P01275 53-81): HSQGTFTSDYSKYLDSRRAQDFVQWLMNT
Sequence of endostatin (EntreMed, Inc.), P39060 (P39060 whole entry, looked up): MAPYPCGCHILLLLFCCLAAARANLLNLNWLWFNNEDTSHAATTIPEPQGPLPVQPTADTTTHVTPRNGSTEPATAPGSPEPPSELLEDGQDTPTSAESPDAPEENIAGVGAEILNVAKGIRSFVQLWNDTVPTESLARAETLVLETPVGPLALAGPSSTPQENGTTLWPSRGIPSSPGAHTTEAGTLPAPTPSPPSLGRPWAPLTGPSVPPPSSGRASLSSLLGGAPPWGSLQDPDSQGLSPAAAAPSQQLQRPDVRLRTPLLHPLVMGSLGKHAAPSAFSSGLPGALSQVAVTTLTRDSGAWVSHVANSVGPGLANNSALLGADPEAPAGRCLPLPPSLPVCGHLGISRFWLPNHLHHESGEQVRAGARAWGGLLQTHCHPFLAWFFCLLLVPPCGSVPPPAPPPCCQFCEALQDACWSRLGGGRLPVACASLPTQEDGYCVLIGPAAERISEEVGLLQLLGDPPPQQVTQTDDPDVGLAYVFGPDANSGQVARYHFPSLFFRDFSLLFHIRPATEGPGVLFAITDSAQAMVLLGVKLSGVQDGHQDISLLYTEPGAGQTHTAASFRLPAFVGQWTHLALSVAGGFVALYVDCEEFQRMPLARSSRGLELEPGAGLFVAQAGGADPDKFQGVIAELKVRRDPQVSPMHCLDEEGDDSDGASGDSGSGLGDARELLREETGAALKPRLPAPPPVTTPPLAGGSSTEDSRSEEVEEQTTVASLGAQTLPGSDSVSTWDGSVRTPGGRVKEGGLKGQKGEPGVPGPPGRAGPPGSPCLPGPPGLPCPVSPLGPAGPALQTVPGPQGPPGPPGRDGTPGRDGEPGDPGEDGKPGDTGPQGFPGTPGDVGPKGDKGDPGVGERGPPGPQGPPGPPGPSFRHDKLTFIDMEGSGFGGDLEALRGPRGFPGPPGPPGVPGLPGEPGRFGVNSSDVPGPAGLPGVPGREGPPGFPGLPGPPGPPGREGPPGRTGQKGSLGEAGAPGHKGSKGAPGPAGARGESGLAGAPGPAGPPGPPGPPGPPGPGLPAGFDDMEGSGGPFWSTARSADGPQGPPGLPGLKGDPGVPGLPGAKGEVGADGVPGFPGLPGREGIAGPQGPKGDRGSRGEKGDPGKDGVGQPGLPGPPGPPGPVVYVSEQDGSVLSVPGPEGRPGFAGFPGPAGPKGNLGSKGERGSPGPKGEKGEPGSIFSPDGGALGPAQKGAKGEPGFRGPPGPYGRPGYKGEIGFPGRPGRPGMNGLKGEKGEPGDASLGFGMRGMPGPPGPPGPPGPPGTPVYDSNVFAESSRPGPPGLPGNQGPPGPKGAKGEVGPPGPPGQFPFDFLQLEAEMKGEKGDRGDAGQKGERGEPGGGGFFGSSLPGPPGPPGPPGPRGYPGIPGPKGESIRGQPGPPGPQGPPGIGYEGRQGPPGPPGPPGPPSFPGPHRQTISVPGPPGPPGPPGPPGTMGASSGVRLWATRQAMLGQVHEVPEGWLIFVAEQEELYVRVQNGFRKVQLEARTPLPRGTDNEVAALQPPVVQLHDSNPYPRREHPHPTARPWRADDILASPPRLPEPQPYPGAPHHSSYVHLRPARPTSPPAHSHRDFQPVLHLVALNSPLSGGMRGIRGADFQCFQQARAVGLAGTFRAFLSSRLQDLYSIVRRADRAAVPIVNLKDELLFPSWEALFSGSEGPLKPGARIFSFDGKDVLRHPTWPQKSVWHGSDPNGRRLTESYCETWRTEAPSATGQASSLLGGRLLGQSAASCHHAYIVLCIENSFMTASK
Sequence of native murine serum albumin (nMSA), P07724 (P07724 25-608): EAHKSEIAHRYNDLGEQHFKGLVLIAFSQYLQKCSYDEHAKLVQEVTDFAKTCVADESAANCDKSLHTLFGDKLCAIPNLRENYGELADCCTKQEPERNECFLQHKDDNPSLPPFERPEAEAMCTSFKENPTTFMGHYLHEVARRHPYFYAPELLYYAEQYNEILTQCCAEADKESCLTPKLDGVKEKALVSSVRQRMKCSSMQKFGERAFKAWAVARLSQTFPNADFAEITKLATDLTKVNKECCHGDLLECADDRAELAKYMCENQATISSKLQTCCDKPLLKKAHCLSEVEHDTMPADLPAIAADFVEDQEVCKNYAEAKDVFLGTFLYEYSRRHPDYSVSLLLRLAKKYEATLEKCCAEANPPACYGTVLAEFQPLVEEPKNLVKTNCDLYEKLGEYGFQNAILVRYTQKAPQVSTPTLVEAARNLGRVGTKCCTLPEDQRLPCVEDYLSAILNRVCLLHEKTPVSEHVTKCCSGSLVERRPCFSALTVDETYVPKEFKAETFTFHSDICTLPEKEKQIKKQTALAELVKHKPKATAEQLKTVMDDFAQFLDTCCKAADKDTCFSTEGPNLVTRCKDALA
Sequence of human coagulation factor VIII (FVIII) (Aafact), P00451 (P00451 whole entry, looked up): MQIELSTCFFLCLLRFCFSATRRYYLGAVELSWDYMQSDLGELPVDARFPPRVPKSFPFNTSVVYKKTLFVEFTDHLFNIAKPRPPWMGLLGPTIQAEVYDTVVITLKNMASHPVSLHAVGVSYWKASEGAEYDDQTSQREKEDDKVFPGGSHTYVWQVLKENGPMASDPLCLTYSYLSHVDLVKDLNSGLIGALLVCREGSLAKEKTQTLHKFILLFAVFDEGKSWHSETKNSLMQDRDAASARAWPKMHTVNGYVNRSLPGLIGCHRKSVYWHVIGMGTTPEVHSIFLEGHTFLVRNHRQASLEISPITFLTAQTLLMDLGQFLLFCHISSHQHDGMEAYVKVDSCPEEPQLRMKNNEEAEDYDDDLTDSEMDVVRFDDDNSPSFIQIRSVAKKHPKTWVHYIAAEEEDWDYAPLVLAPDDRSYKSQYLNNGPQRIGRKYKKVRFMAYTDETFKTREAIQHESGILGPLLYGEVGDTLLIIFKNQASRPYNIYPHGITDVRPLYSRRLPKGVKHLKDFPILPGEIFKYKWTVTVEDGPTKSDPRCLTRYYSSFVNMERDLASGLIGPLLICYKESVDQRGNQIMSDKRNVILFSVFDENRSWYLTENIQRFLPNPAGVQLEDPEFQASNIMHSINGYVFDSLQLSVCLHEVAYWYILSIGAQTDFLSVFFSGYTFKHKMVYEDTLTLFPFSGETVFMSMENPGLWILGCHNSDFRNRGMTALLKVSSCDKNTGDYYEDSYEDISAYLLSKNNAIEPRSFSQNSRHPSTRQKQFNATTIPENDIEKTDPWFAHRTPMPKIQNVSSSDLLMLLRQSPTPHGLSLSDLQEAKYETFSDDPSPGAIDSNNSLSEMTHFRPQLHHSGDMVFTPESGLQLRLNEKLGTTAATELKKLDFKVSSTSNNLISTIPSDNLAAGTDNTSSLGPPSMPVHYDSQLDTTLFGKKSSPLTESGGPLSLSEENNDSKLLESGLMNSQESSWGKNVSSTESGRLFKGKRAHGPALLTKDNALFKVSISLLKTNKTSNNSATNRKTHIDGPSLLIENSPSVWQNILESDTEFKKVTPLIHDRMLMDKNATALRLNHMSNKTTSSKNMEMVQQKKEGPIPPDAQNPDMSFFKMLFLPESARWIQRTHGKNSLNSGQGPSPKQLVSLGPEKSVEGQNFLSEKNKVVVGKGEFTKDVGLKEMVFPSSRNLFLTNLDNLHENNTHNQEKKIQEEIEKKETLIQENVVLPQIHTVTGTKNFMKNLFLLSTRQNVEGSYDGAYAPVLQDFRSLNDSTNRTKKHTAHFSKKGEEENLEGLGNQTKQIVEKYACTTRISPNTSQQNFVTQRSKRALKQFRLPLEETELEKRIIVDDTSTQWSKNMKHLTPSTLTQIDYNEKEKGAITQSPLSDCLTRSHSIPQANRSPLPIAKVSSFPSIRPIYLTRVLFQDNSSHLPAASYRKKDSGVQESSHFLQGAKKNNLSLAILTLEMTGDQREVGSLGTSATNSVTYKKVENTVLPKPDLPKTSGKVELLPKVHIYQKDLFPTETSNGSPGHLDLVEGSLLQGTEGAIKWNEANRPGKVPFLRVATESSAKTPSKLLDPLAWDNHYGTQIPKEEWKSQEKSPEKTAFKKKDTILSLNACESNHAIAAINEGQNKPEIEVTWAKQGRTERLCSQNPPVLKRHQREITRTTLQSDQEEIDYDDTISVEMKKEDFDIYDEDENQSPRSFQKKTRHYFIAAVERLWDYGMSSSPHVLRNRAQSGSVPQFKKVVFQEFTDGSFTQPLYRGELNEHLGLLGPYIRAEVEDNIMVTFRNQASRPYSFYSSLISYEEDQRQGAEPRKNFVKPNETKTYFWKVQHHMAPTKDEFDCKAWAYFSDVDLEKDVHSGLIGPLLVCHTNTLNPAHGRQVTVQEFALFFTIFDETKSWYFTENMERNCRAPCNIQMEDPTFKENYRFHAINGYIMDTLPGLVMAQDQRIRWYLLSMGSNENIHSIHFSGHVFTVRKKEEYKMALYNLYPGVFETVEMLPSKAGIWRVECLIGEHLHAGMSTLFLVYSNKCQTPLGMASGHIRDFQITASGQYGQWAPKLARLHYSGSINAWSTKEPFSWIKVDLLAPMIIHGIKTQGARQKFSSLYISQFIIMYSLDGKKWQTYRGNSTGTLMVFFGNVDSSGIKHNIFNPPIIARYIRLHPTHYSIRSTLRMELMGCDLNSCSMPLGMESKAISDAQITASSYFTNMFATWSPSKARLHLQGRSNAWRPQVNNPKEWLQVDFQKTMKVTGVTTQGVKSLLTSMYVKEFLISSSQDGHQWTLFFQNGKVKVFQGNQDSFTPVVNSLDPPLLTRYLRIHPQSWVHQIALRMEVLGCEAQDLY

Row | Protein | factor XII activation (chromogenic kallikrein assay) [1] | ability to activate tPA/plasminogen [2] | tPA-mediated activation of Plg (chromogenic Plg-activation assay) [3] | tPA activating properties (Plg-activation assay) [4] | tPA activation [5] | tPA activation, Max. Activation (%) (tPA-dependent plasminogen activation, % of standardized positive control) [6] | tPA activating potential [7] | tPA activation, Max. Activation (%) (tPA-dependent plasminogen activation, % of standardized positive control) [7] | stimulation of tPA activation [8] | tPA-mediated conversion of Plg to Pls (substrate S-2251) [9] | generation of plasmin from tPA/plasminogen [10] | tPA-mediated conversion of Plg to Pls (substrate S-2251) [11]
1 | factor XII (purified human factor XII from plasma) (protein) IPPWEAPKEHKYKAEEHTVVLTVTGEPCHFPFQYHRQLYHKCTHKGRPGPQPWCATTPNFDQDQRWGYCLEPKKVKDHCSKHSPCQKGGTCVNMPSGPHCLCPQHLTGNHCQKEKCFEPQLLRFFHKNEIWYRTEQAAVARCQCKGPDAHCQRLASQACRTNPCLHGGRCLEVEGHRLCHCPVGYTGAFCDVDTKASCYDGRGLSYRGLARTTLSGAPCQPWASEATYRNVTAEQARNWGLGGHAFCRNPDNDIRPWCFVLNRDRLSWEYCDLAQCQTPTQAAPPTPVSPRLHVPLMPAQPAPPKPQPTTRTPPQSQTPGALPAKREQPPSLTRNGPLSCGQRLRKSLSSMTRVVGGLVALRGAHPYIAALYWGHSFCAGSLIAPCWVLTAAHCLQDRPAPEDLTVVLGQERRNHSCEPCQTLAVRSYRLHEAFSPVSYQHDLALLRLQEDADGSCALLSPYVQPVCLPSGAARPSETTLCQVAGWGHQFEGAEEYASFLQEAQVPFLSLERCSAPDVHGSSILPGMLCAGFLEGGTDACQGDSGGPLVCEDQAAERRLTLQGIISWGSGCGDRNKPGVYTDVAYYLAWIREHTVS | Only gelatin kept at 37 °C activated factor XII | – | – | – | – | – | – | – | – | – | – | –
2 | tissue-type plasminogen activator (tPA) (protein) SYQVICRDEKTQMIYQQHQSWLRPVLRSNRVEYCWCNSGRAQCHSVPVKSCSEPRCFNGGTCQQALYFSDFVCQCPEGFAGKCCEIDTRATCYEDQGISYRGTWSTAESGAECTNWNSSALAQKPYSGRRPDAIRLGLGNHNYCRNPDRDSKPWCYVFKAGKYSSEFCSTPACSEGNSDCYFGNGSAYRGTHSLTESGASCLPWNSMILIGKVYTAQNPSAQALGLGKHNYCRNPDGDAKPWCHVLKNRRLTWEYCDVPSCSTCGLRQYSQPQFRIKGGLFADIASHPWQAAIFAKHRRSPGERFLCGGILISSCWILSAAHCFQERFPPHHLTVILGRTYRVVPGEEEQKFEVEKYIVHKEFDDDTYDNDIALLQLKSDSSRCAQESSVVRTVCLPPADLQLPDWTECELSGYGKHEALSPFYSERLKEAHVRLYPSSRCTSQHLLNRTVTDNMLCAGDTRSGGPQANLHDACQGDSGGPLVCLNDGRMTLVGIISWGLGCGQKDVPGVYTKVTNYLDWIRDNMRP | – | Alkylation of β2gpi results in amyloid-like properties when the ability to activate tPA/plasminogen is considered | Centrifugation had no effect on the stimulatory effect of Hb-AGE and amyloid γ-globulins on tPA-mediated activation of Plg | the absence of tPA activating properties in 100 µg ml^-1 endostatin | a potent activator of tPA was obtained | 4.22% | at high glucagon concentration, also native glucagon had some tPA activating potential | 11.2% | also native MSA enhanced ThT fluorescence to some extent, but this was not reflected by stimulation of tPA activation | Recombinant β2GPI, but not β2GPI purified from fresh plasma stimulate tPA-mediated conversion of Plg to Pls | Generation of plasmin from tPA/plasminogen is accelerated when β2gpi is exposed to cardiolipin (CL-β2gpi) | Recombinant β2GPI, but not β2GPI purified from fresh plasma stimulate tPA-mediated conversion of Plg to Pls

From patent US20080220446
